Assay results taken from patent publication US20230080534A1, “SEMG2 ANTIBODY AND USE THEREOF” (SHANGHAI BIOTROY BIOTECHNIQUE CO., LTD., priority 2020, published 2023).

B1: MM08: mouse monoclonal antibody against SEMG2(497-509), mIgG1 kappa, VH SEQ ID NO:38, VL SEQ ID NO:45 (antibody, V domains shown)
VH: QVQLQQPGAELVRPGASVKLSCKSSDYTFTRYWMNWVKQRPGQGLEWIGMIDPSDSETHHNQMFKDKATLTVDKSSSTAYMQLSSLTSEDSAVYFCARYLGGKEGSFDYWGQGTTLTVSS
VL: DIVLTQSPSSLAVSAGERVTMSCKSSQSLFNSRTRKNYLAWYQQKPGQSPKLLLYWASTRESGVPDRFTGSGSGTDFTLTISSVKTEDLAVYYCKQSYELPWTFGGGTKLEMKRA
modifications: UNSURE (1)..(120) VH; UNSURE (1)..(115) VL
B2: H88-96: fully human antibody from phage library against SEMG2(497-509), VH SEQ ID NO:54, VL SEQ ID NO:57 (antibody, V domains shown)
VH: QVQLLESGGGLVQPGGSLRLSCSASGFTFSSYAMHWVRQAPGKGLEYVSAISSNGGSTYYADSVKGRFTISRDNSKNTLYLQMSSLRAEDTAVYYCVIEGGSTTGTTSGAFDIWGQGTMVTVSS
VL: DIQMIQSPPSVSASVGDTVTIACRANQGIDSWLAWYQQKPGRAPKLLIYSASRLQSGVPSRFSGGGSGTDFALTISNLQPEDFATYYCQQALSLPITFGQGTRLEIK
modifications: UNSURE (1)..(124) VH; UNSURE (1)..(107) VL
B3: MM07: mouse monoclonal antibody against SEMG2(497-509), mIgG2b kappa, VH SEQ ID NO:37, VL SEQ ID NO:44 (antibody, V domains shown)
VH: MDWLWTLLFLMAAAQSIQAQIQLVQSGPELKKPGETVRISCKASGYTLTTAGMQWVQKIPGKGLKWIGWINTHSGVAEFAEDFKGRFAFSLETSANTAYLQIRNLKNEDTATYFCARLGLLGYWGQGTTLTVSS
VL: MVSSAQFLVFLLFWIPASRGDILLTQSPAILSVSPGERVSFSCRASQSIGTTIHWYQQRTNGSPRLLIKYASESISGIPSRFSGSGSGTDFTLSINSVESEDIADYYCQQSNSWPWTFGGGTKLEIKRA
modifications: UNSURE (1)..(134) VH; UNSURE (1)..(129) VL
B4: MM14: mouse monoclonal antibody against SEMG2(497-509), mIgG2b kappa, VH SEQ ID NO:40, VL SEQ ID NO:47 (antibody, V domains shown)
VH: QVQLKESGPGLVAPSQSLSITCTVSGFSLTSYAVSWVRQPPGKGLEWLGIIWGDGSTNYHSALISRLSISKDNSKSQVFLKLNSLQTDDTATYYCAKQERFSDGYYDGFAYWGQGTLVTVSA
VL: QIVLTQSPAIMSASPGEKVTITCSASSSVSYMHWFQQKPGTSPKLWIYSTSNLASGVPARFSGSGSGTSYSLTISRMEAEDAATYYCQQRSSYPFTFGSGTKLEIKRA
modifications: UNSURE (1)..(122) VH; UNSURE (1)..(108) VL

What was measured:
[1] = biological target: T1, binding between SEMG2 and CD27 (Homo sapiens, UniProt Q02383); test: Antibody blocking ELISA of SEMG2 binding to CD27-Fc; conditions: antibody 10 μg/mL
T1 sequence (Q02383 24-582): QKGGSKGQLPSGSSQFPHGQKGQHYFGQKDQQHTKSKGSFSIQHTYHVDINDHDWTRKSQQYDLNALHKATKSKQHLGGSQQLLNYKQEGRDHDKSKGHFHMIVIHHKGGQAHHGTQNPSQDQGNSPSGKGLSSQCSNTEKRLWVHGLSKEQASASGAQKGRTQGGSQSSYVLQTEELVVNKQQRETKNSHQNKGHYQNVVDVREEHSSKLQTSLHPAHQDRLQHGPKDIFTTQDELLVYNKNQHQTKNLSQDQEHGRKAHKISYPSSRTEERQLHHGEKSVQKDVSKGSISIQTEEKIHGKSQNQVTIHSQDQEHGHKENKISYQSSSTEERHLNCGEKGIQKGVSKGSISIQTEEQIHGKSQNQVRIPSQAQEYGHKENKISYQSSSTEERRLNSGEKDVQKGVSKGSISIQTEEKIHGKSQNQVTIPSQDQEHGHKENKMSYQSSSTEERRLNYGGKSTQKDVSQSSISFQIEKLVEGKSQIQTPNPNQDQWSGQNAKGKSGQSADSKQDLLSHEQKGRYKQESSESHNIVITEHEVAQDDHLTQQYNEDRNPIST
Source text: Because SEMG2 (497-509) sequence fragment is the key epitope of SEMG2 binding to CD27, and has a relatively short sequence, so SEMG2 (497-509) was used as an immunogen to prepare antibodies, which is theoretically easier to obtain functional antibody molecules with the function of blocking the binding between SEMG2 and CD27 than using full-length SEMG2 to prepare antibodies. For direct comparison, the differences in effective concentration of producing antibody by the two methods were verified using ELISA in the examples. Antibodies produced with SEMG2 (497-509) as immunogen and antibodies produced with full-length SEMG2 were added into the enzyme-linked immunosorbent assay (ELISA) reaction system at different concentrations (10^-2, 10^-1, 10^0, 10^1, 10^2, 10^3, 10^4 μg/mL), and the ELISA binding values were measured. The specific steps of enzyme-linked immunosorbent assay are as follows: (1) Dissolve SEMG2 protein antigen with 50 mM carbonate coating buffer (pH 9.6) to make the antigen concentration 10 μg/mL, and add into 96-well ELISA plate (purchased from Corning) at 100 μL/well, place at 4° C. overnight. (2) After discarding the coating solution on the next day, wash with PBST for three times, add 150 μL of 1% BSA to each well, and block for 2 hours at 37° C. […] (4) After washing for 5 times with PBST, add 100 of diluted HRP-labeled anti-human Fe secondary antibody, and incubate at 37° C. for 1 hour. (5) After washing with PBST for 5 times, 20 min after developing with chromogenic agent, the A450 absorption value was read using the microplate reader.
The SEMG2 (497-509) sequence was used to synthesize a polypeptide and coupled to a VLP carrier for immunization; HEK293 cells were used to express the full-length SEMG2 protein, and the purity was tested to reach 92%, and the binding activity of SEMG2 protein to CD27 was verified by ELISA. The protein and polypeptide antigens were used to immunize 10 mice respectively, and multiple immunizations were performed to enhance the effect: (1) The first immunization, 50 μg/mice of antigen, multiple subcutaneous injections together with Freund's complete adjuvant, with an interval of 3 weeks; (2) the second immunization; the same dosage and route as above, with incomplete Freund's adjuvant, and with an interval of 3 weeks; (3) the third immunization, the same dosage as above, without adjuvant, intraperitoneal injection with an interval of 3 weeks; (4) the booster immunization, the dose is 50 μg, intraperitoneal injection. 3 days after the last injection, blood was collected to measure its titer and the immune effect, and mice with higher titers were selected for hybridoma fusion screening. After subcloning, the binding of the monoclonal antibodies to the target antigens was detected by ELISA, and the function of different monoclonal antibodies in blocking the binding between SEMG2 and CD27 was measured by ELISA.
First, SEMG2(497-509) epitope-specific antibodies (for example, MM02, MM05) were compared with other epitope-specific antibodies (for example, HPA042767) for their function in blocking binding between SEMG2 and CD27 at different concentration ranges. […] The blocking function of different antibodies (irrelative mouse IgG, MM02, MM05, HPA042767) on binding between SEMG2 and CD27 was analyzed by the ELISA experiment as described in Example 11.
Further, the effects of different antibodies on the binding between SEMG2 and CD27 were compared under the condition of the same antibody concentration. In the ELISA, the same concentration (10 μg/mL) of antibody was used, and the strength of the binding between SEMG2 and CD27 was measured. […]

[2] = test system: LOVO human colorectal cancer cells; test: Tumor cell killing by activated PBMC, caspase-3/7 apoptosis; type: cell-based; conditions: SEMG2-positive, co-culture with activated PBMC 10:1
Experimental: (§1) To test the above hypothesis, the effects of different epitope-specific antibodies on tumor cell killing by activated PBMC were compared. Specifically, A375 human melanoma and LOVO human colorectal cancer cells highly expressing SEMG2 were seeded in 96-well plate. Human peripheral blood mononuclear cells (PBMC; #70025, Stem Cell) were activated with 100 ng/mL of CD3 antibody, 100 ng/mL, of CD28 antibody, and 1.0 ng/mL of IL2 (#317303; #302913; #589102, BioLegend), respectively, and co-cultured with the above tumor cells at a ratio of 10:1 in presence of fluorescent caspase-3/7 substrate (#4440, Essen Bioscience). After 1.0 hours, cells were observed under fluorescence microscope.
(§2) To verify the above hypothesis, tumor cells with high SEMG2 expression (A375, LOVO) and SEMG2-negative tumor cells (DLD1, NCM460 and NCI-H1975) were selected. Different antibodies (irrelevant mouse IgG antibodies, MM02 or MM05 antibodies) were added during the PBMC killing experiments for the tumor cells.
(§3) To verify the effect of the human antibodies on the function of activated PBMC on tumor cell killing, A375 and LOVO cells were co-cultured with activated PBMC, and H88-93, H88-96, or H88-67 antibody was added at the same time, and the apoptosis ratio of tumor cells were detected.

[3] = test system: A375 human melanoma cells; test: as above; type: cell-based; conditions: A375, SEMG2-positive, co-culture with activated PBMC 10:1
Experimental: as §1, §2, §3

SEMG2(497-509) fragment = biological target: T2, SEMG2(497-509) fragment (Homo sapiens, UniProt Q02383); test: ELISA binding of antibodies to SEMG2(497-509) epitope
T2 construct: SEMG2(497-509) fragment and SEMG2(563-574) fragment were immobilized on the ELISA plate; made in house; host or cells: chemical synthesis
Experimental: Specifically, SEMG2 full-length protein (1-582), SEMG2(354-403) fragment, SEMG2(442-453) fragment, SEMG2(497-509) fragment and SEMG2(563-574) fragment were immobilized on the ELISA plate, and the same concentration of antibodies (MM02, MM05, MM07, MM08, MM13, MM14, HPA042767 and HPA042835) were added. Anti-mouse or anti-rabbit secondary antibodies were then used to detect the corresponding bound antibodies. MM02, MM05, MM07, MM08, MM13, and MM14 all bound to SEMG2(497509) epitope, HPA042767 bound to SEMG2 (354-403) epitope, and HPA042835 bound to […], while none of the antibodies bound to SEMG2 (442-453) control fragment.
Specifically, the preparation of polypeptide antigens and the screening of human natural antibody library were firstly performed. The SEMG2(497-509) polypeptide was synthesized and coupled to BSA and KLH, respectively, and screened in a fully human phage display antibody library. ELISA was used to select clones that bind to antigenic epitopes for preliminary screening. Different unique sequences were obtained after sequencing single colonies, sorted according to affinity sorting, and full-length antibodies were constructed from antigen-binding fragments (Fab) with relatively high affinity. The binding ability and blocking function tests were performed after purification, that is, the effect of the antibody on binding between SEMG2 and CD27 was determined by the ELISA experiment.

| Molecule | effect on the binding between SEMG2 and CD27 [1] | apoptosis tumor cell ratio / killing by activated PBMC [2] | apoptosis tumor cell ratio / killing by activated PBMC [3] | binding to SEMG2(497-509) epitope (SEMG2(497-509) fragment) |
| --- | --- | --- | --- | --- |
| B1 | significantly reduced the binding | significantly increased | significantly increased | bound |
| B2 | inhibited the binding | significantly promote the killing | significantly promote the killing | bind |
| B3 | significantly reduced the binding | significantly increased | significantly increased | bound |
| B4 | significantly reduced the binding | significantly increased | significantly increased | bound |
